Experiments:
Cys333 = Cys333 (UniProt position 333, PIMASCGTGVT); assay: chemical modification (H2O2 inactivation) with activity readout; details: Not stated for the pH pre-incubation. The activity assay was at 25 °C.; Not stated (100 mM buffers); 100 mM sodium citrate, MES, phosphate or borate buffers for the pre-incubation. Activity assay in 30 mM Tris-HCl pH 8.0.; Reduced enzyme (DTT-reduced and desalted), 2 uM, no substrate during the 3 min pre-incubation
Cys = details: cited from earlier work
Cys298 = Cys298 (UniProt position 298, PIAASCGTGVT); assay: chemical modification (H2O2 inactivation) with activity readout; details: Not stated for the pH pre-incubation. The activity assay was at 25 °C.; Not stated (100 mM buffers); 100 mM sodium citrate, MES, phosphate or borate buffers for the pre-incubation. Activity assay in 30 mM Tris-HCl pH 8.0.; Reduced enzyme (DTT-reduced and desalted), 2 uM, no substrate during the 3 min pre-incubation
STR2 [1] = target: T1, STR2 (Arabidopsis thaliana, UniProt Q24JL3); assay: intrinsic tryptophan fluorescence quenching; format: binding
T1 construct: untagged, pET12a; E. coli BL21(DE3)
T1 sequence (Q24JL3 1-342 limits assumed): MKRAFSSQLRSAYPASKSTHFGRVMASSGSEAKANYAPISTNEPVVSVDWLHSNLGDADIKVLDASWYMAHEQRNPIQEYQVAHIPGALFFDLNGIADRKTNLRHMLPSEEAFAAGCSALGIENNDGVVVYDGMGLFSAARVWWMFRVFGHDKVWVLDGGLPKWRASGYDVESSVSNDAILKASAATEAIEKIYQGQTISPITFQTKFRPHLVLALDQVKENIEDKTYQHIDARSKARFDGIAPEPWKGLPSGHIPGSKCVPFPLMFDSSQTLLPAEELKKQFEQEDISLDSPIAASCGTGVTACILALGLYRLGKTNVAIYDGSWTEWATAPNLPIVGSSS

STR1 [2] = target: T2, STR1 (Arabidopsis thaliana, UniProt O64530); assay: intrinsic tryptophan fluorescence quenching; format: binding
T2 construct: untagged (pET28a) or C-terminal His tag (used for Cys variants); E. coli BL21(DE3)
T2 sequence (O64530 57-379): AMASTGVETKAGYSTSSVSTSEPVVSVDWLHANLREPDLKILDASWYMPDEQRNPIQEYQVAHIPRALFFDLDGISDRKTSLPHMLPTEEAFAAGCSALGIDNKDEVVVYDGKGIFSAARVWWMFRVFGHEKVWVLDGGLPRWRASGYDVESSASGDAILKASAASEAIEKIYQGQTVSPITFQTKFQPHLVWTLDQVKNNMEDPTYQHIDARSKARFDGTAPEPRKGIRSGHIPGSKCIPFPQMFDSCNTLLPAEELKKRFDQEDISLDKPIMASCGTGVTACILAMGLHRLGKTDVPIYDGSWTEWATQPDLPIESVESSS

STR2 [3] = target: T3, STR2 (Arabidopsis thaliana, UniProt Q24JL3, C298S); assay: intrinsic tryptophan fluorescence quenching; format: binding; details: 2 μM protein, 100-fold excess 3-MP, pH 8.0; catalytic Cys variant
T3 construct: untagged, pET12a; E. coli BL21(DE3)
T3 sequence (Q24JL3 1-342 C298S limits assumed): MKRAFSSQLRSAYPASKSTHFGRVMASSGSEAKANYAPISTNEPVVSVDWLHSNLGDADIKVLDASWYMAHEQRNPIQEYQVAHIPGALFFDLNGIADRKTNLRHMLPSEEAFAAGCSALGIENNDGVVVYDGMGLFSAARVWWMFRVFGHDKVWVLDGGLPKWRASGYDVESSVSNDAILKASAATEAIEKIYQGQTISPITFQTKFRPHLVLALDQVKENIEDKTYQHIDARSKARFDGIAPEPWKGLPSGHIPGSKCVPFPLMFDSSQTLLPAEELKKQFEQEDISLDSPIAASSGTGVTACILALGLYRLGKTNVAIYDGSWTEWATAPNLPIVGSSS

STR1 [4] = target: T4, STR1 (Arabidopsis thaliana, UniProt O64530, C333S); assay: intrinsic tryptophan fluorescence quenching; format: binding; details: 2 μM protein, 100-fold excess 3-MP, pH 8.0; catalytic Cys variant
T4 construct: untagged (pET28a) or C-terminal His tag (used for Cys variants); E. coli BL21(DE3)
T4 sequence (O64530 57-379 C333S): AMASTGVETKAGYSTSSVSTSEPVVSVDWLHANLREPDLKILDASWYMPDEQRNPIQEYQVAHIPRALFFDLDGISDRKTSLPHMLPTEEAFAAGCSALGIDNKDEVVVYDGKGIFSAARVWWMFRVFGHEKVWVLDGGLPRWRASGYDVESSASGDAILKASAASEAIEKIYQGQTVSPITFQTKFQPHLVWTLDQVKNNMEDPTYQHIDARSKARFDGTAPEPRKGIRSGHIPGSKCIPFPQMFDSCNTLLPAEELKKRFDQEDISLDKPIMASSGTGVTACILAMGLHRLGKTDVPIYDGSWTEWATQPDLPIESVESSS

[5] = substrate: N[C@@H](CS)C(=O)O; assay: H2S release, methylene blue assay; format: biochemical, Arabidopsis thaliana; details: apparent, sulfur acceptor, 250 μM 3-MP, pH 8.0, 25 °C
Source text: (§1) H2S release, methylene blue assay on STR2

[6] = substrate: O=C(O)C(=O)CS; assay: H2S release, methylene blue assay; format: biochemical, Arabidopsis thaliana; details: apparent, sulfur donor, acceptor 10 μM TRXh1 with NADPH and NTRB, pH 8.0, 25 °C
Source text: as §1

[7] = substrate: N[C@@H](CS)C(=O)O; assay: H2S release, methylene blue assay; format: biochemical, Arabidopsis thaliana; details: apparent, sulfur acceptor, 250 μM 3-MP, pH 8.0, 25 °C; remark: listed apart in the source
Source text: (§2) H2S release, methylene blue assay on STR1

[8] = substrate: O=C(O)C(=O)CS; assay: H2S release, methylene blue assay; format: biochemical, Arabidopsis thaliana; details: apparent, sulfur donor, acceptor 30 μM TRXo1 with NADPH and NTRB, pH 8.0, 25 °C
Source text: as §2

**Q.** For “Sulfurtransferase 1 (STR1), mitochondrial 3-mercaptopyruvate sulfurtransferase (Arabidopsis thaliana)”, which pKa (Cys333) is on record?
**A.** Its pKa is 3.8 ± 0.1.

**Q.** With “3-mercaptopyruvate sulfurtransferase (human MST) (Homo sapiens)” as the molecule, how does the pKa (Cys) read?
**A.** Its pKa is 5.2 ± 0.1.

**Q.** Which pKa (Cys298) does the source give for “Sulfurtransferase 2 (STR2), cytosolic 3-mercaptopyruvate sulfurtransferase (Arabidopsis thaliana)” here?
**A.** Its pKa is 4.0 ± 0.1.

**Q.** Which Kd (STR2 [1]) does the source give for `O=C(O)C(=O)CS` [3-MP] here?
**A.** The Kd was 700 ± 300 nM.

**Q.** And the Kd (STR1 [2])?
**A.** The Kd was 1300 ± 900 nM.

**Q.** And the “intrinsic tryptophan fluorescence quenching” value (STR2 [3])?
**A.** The value was “intrinsic fluorescence of both variants also decreased after addition of 3-MP”.

**Q.** What about the “intrinsic tryptophan fluorescence quenching” value (STR1 [4]) of the same molecule?
**A.** Its value is “intrinsic fluorescence of both variants also decreased after addition of 3-MP”.

B1: STR2 (Arabidopsis thaliana) (protein)
chain: MKRAFSSQLRSAYPASKSTHFGRVMASSGSEAKANYAPISTNEPVVSVDWLHSNLGDADIKVLDASWYMAHEQRNPIQEYQVAHIPGALFFDLNGIADRKTNLRHMLPSEEAFAAGCSALGIENNDGVVVYDGMGLFSAARVWWMFRVFGHDKVWVLDGGLPKWRASGYDVESSVSNDAILKASAATEAIEKIYQGQTISPITFQTKFRPHLVLALDQVKENIEDKTYQHIDARSKARFDGIAPEPWKGLPSGHIPGSKCVPFPLMFDSSQTLLPAEELKKQFEQEDISLDSPIAASCGTGVTACILALGLYRLGKTNVAIYDGSWTEWATAPNLPIVGSSS
notes: untagged, pET12a; E. coli BL21(DE3)
**Q.** Which Km [5] does the source give for B1 here?
**A.** The Km was 1300 ± 70 µM.

**Q.** What about the kcat [5] of the same molecule?
**A.** The kcat was 1.5 s⁻¹.

**Q.** And the Km [6]?
**A.** Its Km is 377 ± 15 µM.

**Q.** And the kcat [6]?
**A.** The kcat was 9.7 s⁻¹.

B2: STR1 (Arabidopsis thaliana) (protein)
chain: AMASTGVETKAGYSTSSVSTSEPVVSVDWLHANLREPDLKILDASWYMPDEQRNPIQEYQVAHIPRALFFDLDGISDRKTSLPHMLPTEEAFAAGCSALGIDNKDEVVVYDGKGIFSAARVWWMFRVFGHEKVWVLDGGLPRWRASGYDVESSASGDAILKASAASEAIEKIYQGQTVSPITFQTKFQPHLVWTLDQVKNNMEDPTYQHIDARSKARFDGTAPEPRKGIRSGHIPGSKCIPFPQMFDSCNTLLPAEELKKRFDQEDISLDKPIMASCGTGVTACILAMGLHRLGKTDVPIYDGSWTEWATQPDLPIESVESSS
notes: untagged (pET28a) or C-terminal His tag (used for Cys variants); E. coli BL21(DE3)
**Q.** Which results are given for B2?
**A.** Km [7]: 2200 ± 400 µM; kcat [7]: 3.9 s⁻¹; kcat/Km [7]: 1700 M⁻¹ s⁻¹; Km [8]: 286 ± 5 µM; kcat [8]: 13.5 s⁻¹; kcat/Km [8]: 47000 M⁻¹ s⁻¹

Reference: paper PMC7995614, “Arabidopsis thaliana 3-mercaptopyruvate sulfurtransferases interact with and are protected by reducing systems” (The Journal of Biological Chemistry, 2021)
